This is an account of results in patent publication US20020155547A1 (Biogen, published 2002).

Experiment [1] deals with T1, IFNAR2/Fc fusion protein (extracellular domain of the human IFNAR2 receptor chain fused to the hinge, CH2 and … (human, UniProt P48551 27-243)).
T1 construct: extracellular domain; also called IFNAR2-ectodomain/Fc fusion protein; IFNAR/Fc; not shown: human IgG1 heavy chain constant region: hinge, CH2 and CH3 domains
T1 sequence (looked up): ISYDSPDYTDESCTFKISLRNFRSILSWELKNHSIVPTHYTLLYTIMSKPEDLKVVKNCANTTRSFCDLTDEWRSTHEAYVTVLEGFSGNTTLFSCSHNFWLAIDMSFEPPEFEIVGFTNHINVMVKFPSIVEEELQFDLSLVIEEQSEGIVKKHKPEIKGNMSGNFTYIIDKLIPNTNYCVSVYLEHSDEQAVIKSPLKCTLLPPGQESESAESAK
The experiment in a line: ELISA on captured IFNAR2-Fc; wild type is the reference (100 %), its EC50 is not given. The protocol:
The receptor binding properties of the Interferon-beta mutants described in C were assessed using two different binding assays. One assay measured binding of the interferon-beta mutants to a fusion protein, IFNAR2/Fc, comprising the extracellular domain of the human IFNAR2 receptor chain fused to part of the constant region of a human IgG. IFNAR2-Fc was expressed in chinese hamster ovary (CHO) cells and purified by protein A sepharose affinity chromatography according to the instructions of the manufacturer (Pierce Chem. Co., Rockford, Ill., catalog #20334). The binding of interferon-beta mutants to IFNAR2-Fc was measured in an ELISA format assay. […] Binding of the interferon-beta mutants to IFNAR2-Fc was measured by adding 50 μl/well mutant interferon-beta in conditioned media, serially diluted in Dulbecco's Modified Eagle's Medium (DMEM) supplemented with 10% fetal bovine serum, and incubating for 2 hours at 4° C. […] After washing, interferon-beta bound to the plates was detected by adding 50 μl/well of a cocktail consisting of a 1:1000 dilution of a rabbit polyclonal anti-interferon antibody (#447, Biogen, Inc.) plus horseradish peroxidase (HRP)-labelled donkey anti-rabbit IgG (Jackson ImmunoResearch), and incubating for 15 minutes at 4° C. […]
(In general: In an ELISA, binding on a coated surface is turned into a signal by an enzyme label.)

Experiment [2] deals with T2, type I interferon cell surface receptor complex (IFNAR1/2 complex) expressed on Daudi Burkitt's lymphoma cells (human, UniProt P17181 28-557; P48551 27-515).
T2 construct: whole, on cells; Both chains together comprise the receptor for interferon-beta on the cells of the FACS assay; also called IFNAR1/2 cell surface receptor; cognate receptor on Daudi cells
T2 sequence (looked up) 1: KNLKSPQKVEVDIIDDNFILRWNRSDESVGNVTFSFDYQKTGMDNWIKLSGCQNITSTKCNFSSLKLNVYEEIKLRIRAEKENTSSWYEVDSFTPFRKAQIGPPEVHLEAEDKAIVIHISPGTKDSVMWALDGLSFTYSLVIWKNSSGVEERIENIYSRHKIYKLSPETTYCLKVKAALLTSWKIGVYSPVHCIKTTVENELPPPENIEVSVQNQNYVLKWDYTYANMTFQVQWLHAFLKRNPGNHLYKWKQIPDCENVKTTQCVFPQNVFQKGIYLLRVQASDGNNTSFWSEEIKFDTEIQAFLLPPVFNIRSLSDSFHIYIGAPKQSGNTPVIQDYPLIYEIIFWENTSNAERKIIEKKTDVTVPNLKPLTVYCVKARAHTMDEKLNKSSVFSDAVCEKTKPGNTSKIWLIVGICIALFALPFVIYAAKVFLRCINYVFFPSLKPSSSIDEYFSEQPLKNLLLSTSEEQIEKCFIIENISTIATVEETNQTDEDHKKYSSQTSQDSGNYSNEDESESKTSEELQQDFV
T2 sequence (looked up) 2: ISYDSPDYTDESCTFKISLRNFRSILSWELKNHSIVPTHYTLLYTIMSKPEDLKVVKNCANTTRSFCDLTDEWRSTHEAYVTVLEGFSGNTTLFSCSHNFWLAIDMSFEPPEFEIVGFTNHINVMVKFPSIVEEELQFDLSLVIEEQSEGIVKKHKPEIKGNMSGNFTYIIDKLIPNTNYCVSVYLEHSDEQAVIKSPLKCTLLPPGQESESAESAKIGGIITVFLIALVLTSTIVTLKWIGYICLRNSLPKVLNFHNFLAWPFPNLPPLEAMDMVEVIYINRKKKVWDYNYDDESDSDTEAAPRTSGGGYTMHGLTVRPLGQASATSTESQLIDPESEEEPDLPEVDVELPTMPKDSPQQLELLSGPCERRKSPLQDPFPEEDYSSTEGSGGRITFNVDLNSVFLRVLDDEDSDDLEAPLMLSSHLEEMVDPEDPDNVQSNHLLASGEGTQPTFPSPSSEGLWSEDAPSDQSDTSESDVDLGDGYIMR
As to the kind of experiment: FACS receptor binding assay on Daudi cells; wild type is the reference (100 %), its value is not given. The protocol: A second receptor binding assay was used to measure the affinity with which the interferon-beta mutants bound to Daudi cells expressing both receptor chains, IFNAR1 and IFNAR2, which together comprise the receptor for interferon-beta. This FACS-based assay used a blocking monoclonal antibody directed against the extracellular domain of IFNAR1, EA12 (Biogen, Inc.), to distinguish unoccupied (free) receptor from receptor to which interferon-beta was bound. Daudi cells (20 μl at 2.5×10⁷ cells/ml) were placed in 96-well V-bottom ELISA plates, and incubated for 1 hour at 4° C. with various concentrations of interferon-beta mutant (20 μl in FACS buffer; 5% FBS, 0.1% NaN₃ in PBS). Desirable serial dilutions of interferon-beta mutants ranged from 0.5 μM down to 0.5 pM. To each well was added 100 ng of biotinylated murine anti-IFNAR1 monoclonal antibody EA12 (10 μl), and the plates incubated for an additional 2 minutes at room temperature before being washed twice with FACS buffer (4° C.). […] The samples were then analyzed by flow cytometry on a FACScan (Becton Dickinson). […]

The target of experiment [3] is T1, IFNAR2/Fc fusion protein (extracellular …). The experiment in a line: ELISA on captured IFNAR2-Fc. On the procedure: FIG. 3. Binding of alanine substituted interferon-beta mutants to a dimeric fusion protein comprised of the extracellular domain of the type I interferon receptor chain, IFNAR2/Fc. The binding affinities of the alanine substituted IFN mutants (A1-E) for the IFNAR2 receptor chain were determined as described in Example 1 (subsection D). The histogram presents their binding affinities in this assay relative to wild type his-IFN-beta (% w.t.). The % w. t. values were calculated as the (affinity of wild type his-IFN-beta)/(affinity of mutant IFN-beta)×100. The % w. t. (x) for multiple assays (n=3) and an average % w.t. (x) for the experimental set are shown.
(§1) The receptor binding properties of the Interferon-beta mutants described in C were assessed using two different binding assays. One assay measured binding of the interferon-beta mutants to a fusion protein, IFNAR2/Fc, comprising the extracellular domain of the human IFNAR2 receptor chain fused to part of the constant region of a human IgG. IFNAR2-Fc was expressed in chinese hamster ovary (CHO) cells and purified by protein A sepharose affinity chromatography according to the instructions of the manufacturer (Pierce Chem. Co., Rockford, Ill., catalog #20334). The binding of interferon-beta mutants to IFNAR2-Fc was measured in an ELISA format assay. ELISA plates were prepared by coating flat-bottomed 96 well plates overnight at 4° C. with 50 μl/well of mouse anti-human IgG1 monoclonal antibody (CDG5-AA9, Biogen, Inc.) at 10 μg/ml in coating buffer (50 mM NaHCO₃, 0.2 mM MgCl₂, 0.2 mM CaCl₂, pH 9.6). Plates were washed twice with PBS containing 0.05% Tween-20, and blocked with 0.5% non-fat dry milk in PBS for 1 hour at room temperature. After two more washes, 50 μl of 1 μg/ml IFNAR2-Fc in 0.5% milk in PBS containing 0.05% Tween-20 was added to each well and incubated for 1 hour at room temperature, and the plates were then washed twice more.

Experiment [4] has the same target. As to the kind of experiment: ELISA, IFNAR2-Fc captured on anti-human IgG1 antibody, mutant in conditioned medium. On the procedure: as §1, with “more. Binding of the interferon-beta mutants to IFNAR2-Fc was measured by adding 50 μl/well mutant interferon-beta in conditioned media, serially diluted in Dulbecco's Modified Eagle's Medium (DMEM) supplemented with 10% fetal bovine serum, and incubating for 2 hours at 4° C. Dilutions of interferon-beta mutant typically ranged from approximately 1 μM down to 10 pM. After washing, interferon-beta bound to the plates was detected by adding 50 μl/well of a cocktail consisting of a 1:1000 dilution of a rabbit polyclonal anti-interferon antibody (#447, Biogen, Inc.) plus horseradish peroxidase (HRP)-labelled donkey anti-rabbit IgG (Jackson ImmunoResearch), and incubating for 15 minutes at 4° C. After two washes, HRP substrate was added, and the plate was incubated at 4° C. before being read on an ELISA plate reader at an absorbance of 450 nm. Data were plotted as absorbance versus the concentration of mutant interferon-beta, and the affinity for the binding of the mutant interferon-beta to IFNAR2-Fc was determined by fitting the data to a simple hyperbolic binding equation.” for “more.”

B1: histidine tagged wild-type interferon-beta-1a (ligand)
chain: SGGHHHHHHSSGDDDDKMSYNLLGFLQRSSNFQCQKLLWQLNGRLEYCLKDRMNFDIPEEIKQLQQFQKEDAALTIYEMLQNIFAIFRQDSSSTGWNETIVENLLANVYHQINHLKTVLEEKLEKEDFTRGKLMSSLHLKRYYGRILHYLKAKEYSHCAWTIVRVEILRNFYFINRLTGYLRN
modifications: glycosylated at Asn 80 of the interferon-beta moiety (expressed in human EBNA 293 cells)
notes: Tested as conditioned medium of transfected EBNA 293 cells; also called his IFN-beta; His6-tagged
With B1, the binding result in experiment [1] and in experiment [2] was “binds” throughout.

B2: his tagged interferon-beta alanine substitution mutant AB1 (ligand)
chain: SGGHHHHHHSSGDDDDKMSYNLLGFLQRSSNFQCQKLLWQLNGRAAACAADRMNFDIPEEIKQLQQFQKEDAALTIYEMLQNIFAIFRQDSSSTGWNETIVENLLANVYHQINHLKTVLEEKLEKEDFTRGKLMSSLHLKRYYGRILHYLKAKEYSHCAWTIVRVEILRNFYFINRLTGYLRN
modifications: glycosylated at Asn 80 of the interferon-beta moiety
As for B2, in experiment [3], the “concentration tested relative to the w.t. his-IFN-beta EC50” value was found to be 500 fold. Further, the binding result in experiment [4] was “no binding”.

B3: his tagged interferon-beta alanine substitution mutant AB2 (ligand)
chain: SGGHHHHHHSSGDDDDKMSYNLLGFLQRSSNFQCQKLLWQLNGRLEYCLKDRAAFAIPAEIKQLQQFQKEDAALTIYEMLQNIFAIFRQDSSSTGWNETIVENLLANVYHQINHLKTVLEEKLEKEDFTRGKLMSSLHLKRYYGRILHYLKAKEYSHCAWTIVRVEILRNFYFINRLTGYLRN
modifications: glycosylated at Asn 80 of the interferon-beta moiety
On to B3, for which the “concentration tested relative to the w.t. his-IFN-beta EC50” value in experiment [3] amounted to 500 fold. The binding result in experiment [4] is recorded as “no binding”.

B4: his tagged interferon-beta alanine substitution mutant A2 (ligand)
chain: SGGHHHHHHSSGDDDDKMSYNLLGFLQRSSNAACAALLAALNGRLEYCLKDRMNFDIPEEIKQLQQFQKEDAALTIYEMLQNIFAIFRQDSSSTGWNETIVENLLANVYHQINHLKTVLEEKLEKEDFTRGKLMSSLHLKRYYGRILHYLKAKEYSHCAWTIVRVEILRNFYFINRLTGYLRN
modifications: glycosylated at Asn 80 of the interferon-beta moiety
notes: also called A2 helix
With B4, the “concentration tested relative to the w.t. his-IFN-beta EC50” value in experiment [3] is 500 fold. In addition, the binding result in experiment [4] is “no binding”.

B5: his tagged interferon-beta alanine substitution mutant E (ligand)
chain: SGGHHHHHHSSGDDDDKMSYNLLGFLQRSSNFQCQKLLWQLNGRLEYCLKDRMNFDIPEEIKQLQQFQKEDAALTIYEMLQNIFAIFRQDSSSTGWNETIVENLLANVYHQINHLKTVLEEKLEKEDFTRGKLMSSLHLKRYYGRILHYLKAKEYSHCAWTIVRAEILANFAFIARLTGYLRN
modifications: glycosylated at Asn 80 of the interferon-beta moiety
notes: also called E helix
For the molecule B5, in experiment [3], the “concentration tested relative to the w.t. his-IFN-beta EC50” value was determined as 500 fold. Further, in experiment [4], the binding result is listed as “no binding”.
